Data: publication PMC6656775, “Soluble and membrane-bound protein carrier mediate direct copper transport to the ethylene receptor family” (Scientific Reports, 2019)

T1: RAN1, full-length, purified recombinant (A. thaliana, UniProt Q9S7J8 1-1001, AlexaFluor488-NHS label)
T1 construct: P1B-type copper ATPase RAN1 (HMA7), Arabidopsis thaliana, full-length; also called full-length RAN1; HMA7; source: E. coli BL21 (DE3) or C43 (DE3), pETEV16b, solubilised with DDM, purified (HisTrap, TEV, Superdex200)
T1 sequence (looked up): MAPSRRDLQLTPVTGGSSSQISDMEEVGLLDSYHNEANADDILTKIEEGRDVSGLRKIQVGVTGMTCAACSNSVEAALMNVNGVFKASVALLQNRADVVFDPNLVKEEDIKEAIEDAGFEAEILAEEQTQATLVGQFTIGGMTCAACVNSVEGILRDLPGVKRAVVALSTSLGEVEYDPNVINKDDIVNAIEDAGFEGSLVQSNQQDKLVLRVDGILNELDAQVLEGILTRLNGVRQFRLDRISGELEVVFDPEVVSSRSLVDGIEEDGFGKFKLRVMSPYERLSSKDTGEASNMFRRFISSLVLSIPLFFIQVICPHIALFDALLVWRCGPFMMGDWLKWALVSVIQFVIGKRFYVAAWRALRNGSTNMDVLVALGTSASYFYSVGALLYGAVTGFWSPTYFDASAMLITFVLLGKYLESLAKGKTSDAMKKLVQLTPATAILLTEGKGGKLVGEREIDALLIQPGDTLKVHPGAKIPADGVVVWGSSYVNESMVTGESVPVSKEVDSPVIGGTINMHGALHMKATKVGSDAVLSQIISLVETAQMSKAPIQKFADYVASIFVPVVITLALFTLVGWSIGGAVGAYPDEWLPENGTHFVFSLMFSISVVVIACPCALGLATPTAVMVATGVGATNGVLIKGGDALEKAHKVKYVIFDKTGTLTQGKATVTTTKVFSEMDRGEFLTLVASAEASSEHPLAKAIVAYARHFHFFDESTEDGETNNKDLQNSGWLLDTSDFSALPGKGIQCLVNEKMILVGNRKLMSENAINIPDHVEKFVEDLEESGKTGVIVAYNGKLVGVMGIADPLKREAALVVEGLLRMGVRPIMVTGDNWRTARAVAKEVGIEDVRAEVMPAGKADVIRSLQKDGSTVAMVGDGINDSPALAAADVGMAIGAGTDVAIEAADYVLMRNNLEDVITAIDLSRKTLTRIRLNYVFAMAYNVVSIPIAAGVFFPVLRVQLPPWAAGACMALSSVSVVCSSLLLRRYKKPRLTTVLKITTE

T2: CterRAN1 (amino acids 299–1001), purified recombinant (A. thaliana, UniProt Q9S7J8 299-1001, AlexaFluor488-NHS label)
T2 construct: RAN1 (HMA7), Arabidopsis thaliana, amino acids 299-1001 (transmembrane copper transport site); also called CterRAN1 mutant; source: E. coli BL21 (DE3) or C43 (DE3), pETEV16b, solubilised with DDM, purified (HisTrap, TEV, Superdex200)
T2 sequence (looked up): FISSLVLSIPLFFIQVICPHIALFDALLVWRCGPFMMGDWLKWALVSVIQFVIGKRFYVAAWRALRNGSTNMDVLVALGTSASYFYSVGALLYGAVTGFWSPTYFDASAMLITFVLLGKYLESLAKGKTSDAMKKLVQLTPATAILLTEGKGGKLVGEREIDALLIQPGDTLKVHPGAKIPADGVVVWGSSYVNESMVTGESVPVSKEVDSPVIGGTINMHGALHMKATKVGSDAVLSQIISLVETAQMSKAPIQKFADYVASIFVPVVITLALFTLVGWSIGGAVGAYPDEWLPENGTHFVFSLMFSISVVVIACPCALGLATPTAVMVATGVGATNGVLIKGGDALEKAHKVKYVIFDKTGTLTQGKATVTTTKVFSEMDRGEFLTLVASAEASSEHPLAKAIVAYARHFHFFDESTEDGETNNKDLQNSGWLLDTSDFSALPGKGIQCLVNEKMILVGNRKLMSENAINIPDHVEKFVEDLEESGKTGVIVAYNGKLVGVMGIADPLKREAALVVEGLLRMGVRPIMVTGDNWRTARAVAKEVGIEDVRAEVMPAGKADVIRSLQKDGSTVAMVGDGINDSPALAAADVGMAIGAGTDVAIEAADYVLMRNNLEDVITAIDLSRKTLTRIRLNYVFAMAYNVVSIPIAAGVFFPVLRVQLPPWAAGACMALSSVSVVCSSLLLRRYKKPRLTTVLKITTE

B1: ETR1^1–157, purified recombinant (domain or fragment, A. thaliana, UniProt P49333 1-157, looked up)
chain: MEVCNCIEPQWPADELLMKYQYISDFFIAIAYFSIPLELIYFVKKSAVFPYRWVLVQFGAFIVLCGATHLINLWTFTTHSRTVALVMTTAKVLTAVVSCATALMLVHIIPDLLSVKTRELFLKNKAAELDREMGLIRTQEETGRHVRMLTHEIRSTL
notes: In detergent (FosCholine-16); also called purified ETR1
B2: ETR1^306–738, purified recombinant (domain or fragment, A. thaliana, UniProt P49333 306-738, looked up)
chain: ALSHAAILEESMRARDLLMEQNVALDLARREAETAIRARNDFLAVMNHEMRTPMHAIIALSSLLQETELTPEQRLMVETILKSSNLLATLMNDVLDLSRLEDGSLQLELGTFNLHTLFREVLNLIKPIAVVKKLPITLNLAPDLPEFVVGDEKRLMQIILNIVGNAVKFSKQGSISVTALVTKSDTRAADFFVVPTGSHFYLRVKVKDSGAGINPQDIPKIFTKFAQTQSLATRSSGGSGLGLAISKRFVNLMEGNIWIESDGLGKGCTAIFDVKLGISERSNESKQSGIPKVPAIPRHSNFTGLKVLVMDENGVSRMVTKGLLVHLGCEVTTVSSNEECLRVVSHEHKVVFMDVCMPGVENYQIALRIHEKFTKQRHQRPLLVALSGNTDKSTKEKCMSFGLDGVLLKPVSLDNIRDVLSDLLEPRVLYEGM
notes: also called extra-membranous part of ETR1; soluble extra-membranous part of the receptor
B3: NterRAN1 (amino acids 1–298), purified recombinant (domain or fragment, A. thaliana, UniProt Q9S7J8 1-298, looked up)
chain: MAPSRRDLQLTPVTGGSSSQISDMEEVGLLDSYHNEANADDILTKIEEGRDVSGLRKIQVGVTGMTCAACSNSVEAALMNVNGVFKASVALLQNRADVVFDPNLVKEEDIKEAIEDAGFEAEILAEEQTQATLVGQFTIGGMTCAACVNSVEGILRDLPGVKRAVVALSTSLGEVEYDPNVINKDDIVNAIEDAGFEGSLVQSNQQDKLVLRVDGILNELDAQVLEGILTRLNGVRQFRLDRISGELEVVFDPEVVSSRSLVDGIEEDGFGKFKLRVMSPYERLSSKDTGEASNMFRR
modifications: AlexaFluor488-NHS label
notes: RAN1 (HMA7), Arabidopsis thaliana, cytosolic N-terminal region, amino acids 1-298; source: E. coli BL21 (DE3) or C43 (DE3), pETEV16b, purified (HisTrap, TEV, Superdex200)

Columns and labels:
[1] = target: T1, RAN1, full-length, purified recombinant; assay: MST; AlexaFluor488-labelled RAN1 or CterRAN1 (15 nM, 50 mM HEPES, 300 mM NaCl, 0.1% DDM, pH 7.5) or NterRAN1 (50 nM, same buffer without DDM, 0.05% Tween20); ATX1, CCH or CCHΔ titrated 30 µM to 0.9 nM; triplicates; apparent dissociation constants; details: both partners purified
[2] = target: B1; assay: MST; AlexaFluor488-labelled ATX1 (75 nM), CCH (100 nM) or CCHΔ (50 nM) in 50 mM HEPES, 300 mM NaCl, pH 7.5, 0.015% FosCholine-16, 0.05% Tween20; ETR1^1–157 titrated 7.5 µM to 0.2 nM; triplicates; apparent dissociation constants; details: both partners purified
[3] = target: T1, RAN1, full-length, purified recombinant; assay: MST; AlexaFluor488-labelled RAN1 or CterRAN1 (20 nM, 50 mM HEPES, 300 mM NaCl, 0.1% DDM, pH 7.5) or NterRAN1 (40 nM, 0.05% Tween20); ETR1^1–157 titrated 10 µM to 0.3 nM in buffer with 0.015% FosCholine-16; triplicates; details: both partners purified
[4] = target: B3; assay: as above; details: both partners purified
[5] = target: CterRAN1 (amino acids 299–1001), purified recombinant (A. thaliana) (UniProt Q9S7J8); assay: as above
[6] = target: T2, CterRAN1 (amino acids 299–1001), …; assay: MST; AlexaFluor488-labelled RAN1, CterRAN1, NterRAN1, ATX1, CCH or CCHΔ (50 nM) in buffer D (50 mM Tris, 250 mM NaCl, 0.015% FosCholine16, 2.5 mM DTT, 20% glycerol, pH 8.5); ETR1^306–738 titrated 37 µM to 1.1 nM; triplicates; details: both partners purified
[7] = target: T1, RAN1, full-length, purified recombinant; assay: as above; details: both partners purified
[8] = target: B2; assay: as above; details: both partners purified

| Binder | Kd [1] | Kd [2] | further results |
| --- | --- | --- | --- |
| CCH, full-length, purified recombinant (natural protein, A. thaliana, UniProt O82089 1-121, looked up, AlexaFluor488-NHS label where it was the labelled partner (with ETR1^1–157 and ETR1^306–738); unlabelled where titrated, soluble copper chaperone CCH, Arabidopsis thaliana, full-length; Preloaded with Cu(I) in the copper transfer assay; also called CCH wildtype; full-length CCH; source: E. coli BL21 (DE3) or C43 (DE3), pETEV16b, purified (HisTrap, TEV, Superdex200)) MAQTVVLKVGMSCQGCVGAVNRVLGKMEGVESFDIDIKEQKVTVKGNVEPEAVFQTVSKTGKKTSYWPVEAEAEPKAEADPKVETVTETKTEAETKTEAKVDAKADVEPKAAEAETKPSQV | 55 ± 13 nM | 526 ± 101 nM |  |
| B1 |  |  | Kd [3]: 33 ± 8 nM; Kd [4]: 205 ± 35 nM; Kd [5]: 2610 nM |
| B2 |  |  | Kd [6]: 211 ± 38 nM; Kd [7]: 71 ± 17 nM |
| CCHΔ, deletion mutant of CCH lacking the C-terminal extension, purified recombinant (domain or fragment, AlexaFluor488-NHS label where it was the labelled partner (with ETR1^1–157 and ETR1^306–738); unlabelled where titrated) MAQTVVLKVGMSCQGCVGAVNRVLGKMEGVESFDIDIKEQKVTVKGNVEPEAVFQTVSKTGKKTSYWPVEAEAEPK | 77 ± 24 nM | 376 ± 93 nM |  |
| B3 |  |  | Kd [8]: 3480 ± 315 nM |
| ATX1, purified recombinant (natural protein, A. thaliana, UniProt Q94BT9 1-76, looked up, AlexaFluor488-NHS label where it was the labelled partner (with ETR1^1–157 and ETR1^306–738); unlabelled where titrated, soluble copper chaperone ATX1, Arabidopsis thaliana; Preloaded with Cu(I) in the copper transfer assay; also called Cu(I)-ATX1; source: E. coli BL21 (DE3) or C43 (DE3), pETEV16b, purified (HisTrap, TEV, Superdex200)) MSQTVVLRVAMTCEGCVGAVKRVLGKMEGVESFDVDIKEQKVTVKGNVQPDAVLQTVTKTGKKTAFWEAEGETAKA | 41 ± 11 nM | 313 ± 74 nM |  |
